# Reference: patent publication US20140087995A1 (published 2014)
# Numbered stars: 1 amine (or outer) side, 2 acyl side, 3 side chain; on linkers, the order of the positions; unused ones are H or OH. Bridge positions count the residues as written; N and C are the ends. Side chains are listed from the residue outwards. Ends that are not written are not given here. * marks the point of attachment. C20 diacid = O=C(O)CCCCCCCCCCCCCCCCCCC(=O)*; γGlu = O=C(O)[C@H](CCC(=O)[*:2])N[*:1]; AEEA = NCCOCCOCC(=O)O
# T1: rat calcitonin receptor (rat, UniProt P32214 25-516)
# T1 construct: whole, on cells; Membranes prepared from transiently transfected BHK tk'ts 13 cells (Assay VIII); also called rCTR; rCT
# T1 sequence (looked up): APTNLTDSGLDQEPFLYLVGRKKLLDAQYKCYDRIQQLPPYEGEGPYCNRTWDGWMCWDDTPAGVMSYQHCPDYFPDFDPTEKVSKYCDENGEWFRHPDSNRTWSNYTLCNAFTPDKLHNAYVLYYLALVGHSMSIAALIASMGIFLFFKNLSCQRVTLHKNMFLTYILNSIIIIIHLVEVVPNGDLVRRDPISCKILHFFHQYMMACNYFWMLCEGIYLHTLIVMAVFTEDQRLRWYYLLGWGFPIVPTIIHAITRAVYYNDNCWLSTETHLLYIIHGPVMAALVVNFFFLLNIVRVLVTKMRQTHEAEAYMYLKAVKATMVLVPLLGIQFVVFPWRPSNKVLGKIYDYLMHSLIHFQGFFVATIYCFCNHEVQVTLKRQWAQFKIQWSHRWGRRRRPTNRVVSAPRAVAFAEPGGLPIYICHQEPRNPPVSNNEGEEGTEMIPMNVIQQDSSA
# T2: human calcitonin receptor (human, UniProt P30988 25-474)
# T2 construct: whole, on cells; Membranes prepared from a stably transfected BHK cell line (Assay VII); also called hCTR; hCT
# T2 sequence (looked up): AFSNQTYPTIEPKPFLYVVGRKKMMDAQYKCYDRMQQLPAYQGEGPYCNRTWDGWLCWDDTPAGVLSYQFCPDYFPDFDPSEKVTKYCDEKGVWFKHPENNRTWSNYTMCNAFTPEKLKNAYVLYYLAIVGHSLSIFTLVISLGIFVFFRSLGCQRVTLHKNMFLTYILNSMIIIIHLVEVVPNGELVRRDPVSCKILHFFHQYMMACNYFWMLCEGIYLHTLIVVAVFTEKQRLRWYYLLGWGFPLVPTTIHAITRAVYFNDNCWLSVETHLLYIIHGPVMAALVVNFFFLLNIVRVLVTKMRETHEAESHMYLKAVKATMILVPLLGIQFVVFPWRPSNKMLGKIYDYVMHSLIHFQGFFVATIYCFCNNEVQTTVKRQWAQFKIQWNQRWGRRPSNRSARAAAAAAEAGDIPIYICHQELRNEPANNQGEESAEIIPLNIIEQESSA
# T3: rat amylin receptor (rat calcitonin receptor + rat RAMP 3) (rat, UniProt P32214 25-516; Q9JJ73 23-147)
# T3 construct: whole, on cells; Membranes prepared from transiently transfected BHK tk'ts 13 cells (Assay VI); also called rAmylin-R; rAmylin
# T3 sequence (looked up) 1: T1 sequence (looked up)
# T3 sequence (looked up) 2: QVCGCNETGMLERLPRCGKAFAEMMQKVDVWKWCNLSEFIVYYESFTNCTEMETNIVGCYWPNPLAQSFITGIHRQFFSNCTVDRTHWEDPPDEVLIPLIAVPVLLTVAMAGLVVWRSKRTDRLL
# B1: N^ε1-[2-[2-[2-[[(4S)-4-carboxy-4-(19-carboxynonadecanoylamino)butanoyl]amino]ethoxy]ethoxy]acetyl]-[His14,Arg17,Pro21,Pro27,Arg34]-h-amylin (peptide)
# peptide: K([AEEA-γGlu-C20 diacid])CNTATCATQRLAHFLRHSSPNFGAIPSSTNVGRNTY-NH2
# modifications: disulfide 2-7; N-terminus assumed
# SMILES: CC[C@H](C)[C@H](NC(=O)[C@H](C)NC(=O)CNC(=O)[C@H](Cc1ccccc1)NC(=O)[C@H](CC(N)=O)NC(=O)[C@@H]1CCCN1C(=O)[C@H](CO)NC(=O)[C@H](CO)NC(=O)[C@H](Cc1c[nH]cn1)NC(=O)[C@H](CCCNC(=N)N)NC(=O)[C@H](CC(C)C)NC(=O)[C@H](Cc1ccccc1)NC(=O)[C@H](Cc1c[nH]cn1)NC(=O)[C@H](C)NC(=O)[C@H](CC(C)C)NC(=O)[C@H](CCCNC(=N)N)NC(=O)[C@H](CCC(N)=O)NC(=O)[C@@H](NC(=O)[C@H](C)NC(=O)[C@@H]1CSSC[C@H](NC(=O)[C@@H](N)CCCCNC(=O)COCCOCCNC(=O)CC[C@H](NC(=O)CCCCCCCCCCCCCCCCCCC(=O)O)C(=O)O)C(=O)N[C@@H](CC(N)=O)C(=O)N[C@@H]([C@@H](C)O)C(=O)N[C@@H](C)C(=O)N[C@@H]([C@@H](C)O)C(=O)N1)[C@@H](C)O)C(=O)N1CCC[C@H]1C(=O)N[C@@H](CO)C(=O)N[C@@H](CO)C(=O)N[C@H](C(=O)N[C@@H](CC(N)=O)C(=O)N[C@H](C(=O)NCC(=O)N[C@@H](CCCNC(=N)N)C(=O)N[C@@H](CC(N)=O)C(=O)N[C@H](C(=O)N[C@@H](Cc1ccc(O)cc1)C(N)=O)[C@@H](C)O)C(C)C)[C@@H](C)O
# notes: Analogue of human amylin; also called compound 84
# B2: N^ε1-[2-[2-[2-[[(4S)-4-carboxy-4-(19-carboxynonadecanoylamino)butanoyl]amino]ethoxy]ethoxy]acetyl]-[His14,Arg17,Pro21,Pro27,Pro31]-h-amylin (peptide)
# peptide: K([AEEA-γGlu-C20 diacid])CNTATCATQRLAHFLRHSSPNFGAIPSSTPVGSNTY-NH2
# modifications: disulfide 2-7; N-terminus assumed
# SMILES: CC[C@H](C)[C@H](NC(=O)[C@H](C)NC(=O)CNC(=O)[C@H](Cc1ccccc1)NC(=O)[C@H](CC(N)=O)NC(=O)[C@@H]1CCCN1C(=O)[C@H](CO)NC(=O)[C@H](CO)NC(=O)[C@H](Cc1c[nH]cn1)NC(=O)[C@H](CCCNC(=N)N)NC(=O)[C@H](CC(C)C)NC(=O)[C@H](Cc1ccccc1)NC(=O)[C@H](Cc1c[nH]cn1)NC(=O)[C@H](C)NC(=O)[C@H](CC(C)C)NC(=O)[C@H](CCCNC(=N)N)NC(=O)[C@H](CCC(N)=O)NC(=O)[C@@H](NC(=O)[C@H](C)NC(=O)[C@@H]1CSSC[C@H](NC(=O)[C@@H](N)CCCCNC(=O)COCCOCCNC(=O)CC[C@H](NC(=O)CCCCCCCCCCCCCCCCCCC(=O)O)C(=O)O)C(=O)N[C@@H](CC(N)=O)C(=O)N[C@@H]([C@@H](C)O)C(=O)N[C@@H](C)C(=O)N[C@@H]([C@@H](C)O)C(=O)N1)[C@@H](C)O)C(=O)N1CCC[C@H]1C(=O)N[C@@H](CO)C(=O)N[C@@H](CO)C(=O)N[C@H](C(=O)N1CCC[C@H]1C(=O)N[C@H](C(=O)NCC(=O)N[C@@H](CO)C(=O)N[C@@H](CC(N)=O)C(=O)N[C@H](C(=O)N[C@@H](Cc1ccc(O)cc1)C(N)=O)[C@@H](C)O)C(C)C)[C@@H](C)O
# notes: Analogue of human amylin; also called compound 61
# B3: N^ε1-[2-[2-[2-[[(4S)-4-carboxy-4-(19-carboxynonadecanoylamino)butanoyl]amino]ethoxy]ethoxy]acetyl]-[His14,Arg17,Pro21,Pro27,Pro34]-h-amylin (peptide)
# peptide: K([AEEA-γGlu-C20 diacid])CNTATCATQRLAHFLRHSSPNFGAIPSSTNVGPNTY-NH2
# modifications: disulfide 2-7; N-terminus assumed
# SMILES: CC[C@H](C)[C@H](NC(=O)[C@H](C)NC(=O)CNC(=O)[C@H](Cc1ccccc1)NC(=O)[C@H](CC(N)=O)NC(=O)[C@@H]1CCCN1C(=O)[C@H](CO)NC(=O)[C@H](CO)NC(=O)[C@H](Cc1c[nH]cn1)NC(=O)[C@H](CCCNC(=N)N)NC(=O)[C@H](CC(C)C)NC(=O)[C@H](Cc1ccccc1)NC(=O)[C@H](Cc1c[nH]cn1)NC(=O)[C@H](C)NC(=O)[C@H](CC(C)C)NC(=O)[C@H](CCCNC(=N)N)NC(=O)[C@H](CCC(N)=O)NC(=O)[C@@H](NC(=O)[C@H](C)NC(=O)[C@@H]1CSSC[C@H](NC(=O)[C@@H](N)CCCCNC(=O)COCCOCCNC(=O)CC[C@H](NC(=O)CCCCCCCCCCCCCCCCCCC(=O)O)C(=O)O)C(=O)N[C@@H](CC(N)=O)C(=O)N[C@@H]([C@@H](C)O)C(=O)N[C@@H](C)C(=O)N[C@@H]([C@@H](C)O)C(=O)N1)[C@@H](C)O)C(=O)N1CCC[C@H]1C(=O)N[C@@H](CO)C(=O)N[C@@H](CO)C(=O)N[C@H](C(=O)N[C@@H](CC(N)=O)C(=O)N[C@H](C(=O)NCC(=O)N1CCC[C@H]1C(=O)N[C@@H](CC(N)=O)C(=O)N[C@H](C(=O)N[C@@H](Cc1ccc(O)cc1)C(N)=O)[C@@H](C)O)C(C)C)[C@@H](C)O
# notes: Analogue of human amylin; also called compound 68
# B4: N^ε1-[2-[2-[2-[[(4S)-4-carboxy-4-(19-carboxynonadecanoylamino)butanoyl]amino]ethoxy]ethoxy]acetyl]-[Lys14,Arg17,Pro21,Pro27,Pro31]-h-amylin (peptide)
# peptide: K([AEEA-γGlu-C20 diacid])CNTATCATQRLAKFLRHSSPNFGAIPSSTPVGSNTY-NH2
# modifications: disulfide 2-7; N-terminus assumed
# SMILES: CC[C@H](C)[C@H](NC(=O)[C@H](C)NC(=O)CNC(=O)[C@H](Cc1ccccc1)NC(=O)[C@H](CC(N)=O)NC(=O)[C@@H]1CCCN1C(=O)[C@H](CO)NC(=O)[C@H](CO)NC(=O)[C@H](Cc1c[nH]cn1)NC(=O)[C@H](CCCNC(=N)N)NC(=O)[C@H](CC(C)C)NC(=O)[C@H](Cc1ccccc1)NC(=O)[C@H](CCCCN)NC(=O)[C@H](C)NC(=O)[C@H](CC(C)C)NC(=O)[C@H](CCCNC(=N)N)NC(=O)[C@H](CCC(N)=O)NC(=O)[C@@H](NC(=O)[C@H](C)NC(=O)[C@@H]1CSSC[C@H](NC(=O)[C@@H](N)CCCCNC(=O)COCCOCCNC(=O)CC[C@H](NC(=O)CCCCCCCCCCCCCCCCCCC(=O)O)C(=O)O)C(=O)N[C@@H](CC(N)=O)C(=O)N[C@@H]([C@@H](C)O)C(=O)N[C@@H](C)C(=O)N[C@@H]([C@@H](C)O)C(=O)N1)[C@@H](C)O)C(=O)N1CCC[C@H]1C(=O)N[C@@H](CO)C(=O)N[C@@H](CO)C(=O)N[C@H](C(=O)N1CCC[C@H]1C(=O)N[C@H](C(=O)NCC(=O)N[C@@H](CO)C(=O)N[C@@H](CC(N)=O)C(=O)N[C@H](C(=O)N[C@@H](Cc1ccc(O)cc1)C(N)=O)[C@@H](C)O)C(C)C)[C@@H](C)O
# notes: Analogue of human amylin; also called compound 74
# B5: N^ε1-[2-[2-[2-[[(4S)-4-carboxy-4-(19-carboxynonadecanoylamino)butanoyl]amino]ethoxy]ethoxy]acetyl]-[His14,Arg17,Pro21,Pro27,His34]-h-amylin (peptide)
# peptide: K([AEEA-γGlu-C20 diacid])CNTATCATQRLAHFLRHSSPNFGAIPSSTNVGHNTY-NH2
# modifications: disulfide 2-7; N-terminus assumed
# SMILES: CC[C@H](C)[C@H](NC(=O)[C@H](C)NC(=O)CNC(=O)[C@H](Cc1ccccc1)NC(=O)[C@H](CC(N)=O)NC(=O)[C@@H]1CCCN1C(=O)[C@H](CO)NC(=O)[C@H](CO)NC(=O)[C@H](Cc1c[nH]cn1)NC(=O)[C@H](CCCNC(=N)N)NC(=O)[C@H](CC(C)C)NC(=O)[C@H](Cc1ccccc1)NC(=O)[C@H](Cc1c[nH]cn1)NC(=O)[C@H](C)NC(=O)[C@H](CC(C)C)NC(=O)[C@H](CCCNC(=N)N)NC(=O)[C@H](CCC(N)=O)NC(=O)[C@@H](NC(=O)[C@H](C)NC(=O)[C@@H]1CSSC[C@H](NC(=O)[C@@H](N)CCCCNC(=O)COCCOCCNC(=O)CC[C@H](NC(=O)CCCCCCCCCCCCCCCCCCC(=O)O)C(=O)O)C(=O)N[C@@H](CC(N)=O)C(=O)N[C@@H]([C@@H](C)O)C(=O)N[C@@H](C)C(=O)N[C@@H]([C@@H](C)O)C(=O)N1)[C@@H](C)O)C(=O)N1CCC[C@H]1C(=O)N[C@@H](CO)C(=O)N[C@@H](CO)C(=O)N[C@H](C(=O)N[C@@H](CC(N)=O)C(=O)N[C@H](C(=O)NCC(=O)N[C@@H](Cc1c[nH]cn1)C(=O)N[C@@H](CC(N)=O)C(=O)N[C@H](C(=O)N[C@@H](Cc1ccc(O)cc1)C(N)=O)[C@@H](C)O)C(C)C)[C@@H](C)O
# notes: Analogue of human amylin; also called compound 80
# Molecular target: T1, rat calcitonin receptor
# Test: ratio of binding IC50s: rat calcitonin receptor / rat amylin receptor (reference)
row,Ratio rCT/rAmylin binding,Binder
1,94.3,B1
2,39.7,B2
3,122,B3
4,22.3,B4
5,36.2,B5

# Molecular target: T2, human calcitonin receptor
# Test: ratio of binding IC50s: human calcitonin receptor / human amylin receptor (reference)
# Procedure, shortened: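 Competition binding by SPA uses membrane preparations (35 ng/μL final) in pH 7.4 Hepes buffer with 1 mM CaCl2 and 5 mM MgCl₂. Incubation lasts 120 min at 25° C, and IC₅₀ comes from one-site fitting.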
row,Ratio hCT/hAmylin binding,Binder
1,120,B1
2,66.7,B2
3,64.4,B3
4,101,B4
5,68.1,B5

# Molecular target: T1, rat calcitonin receptor
# Test: SPA competition vs 125I-calcitonin, membranes of BHK cells with rat calcitonin receptor (Assay VIII)
row,IC50,Binder
1,477 nM,B1
2,33.4 nM,B2
3,28.5 nM,B3
4,109 nM,B4
5,60.4 nM,B5

# Molecular target: T3, rat amylin receptor (rat calcitonin …)
# Test: SPA competition vs 125I-rat amylin, membranes of BHK cells with rat calcitonin receptor + rat RAMP3 (Assay VI)
row,IC50,Binder
1,5.05 nM,B1
2,0.842 nM,B2
3,0.234 nM,B3
4,4.89 nM,B4
5,1.67 nM,B5
